Test results published in patent US20030170785A1.

Molecular target: CaV1.2 (α1C) L-type calcium channel subunit
Test: cell-based or functional assay

## calcium channel β3 subunit
  Ca^2+ influx (fluorescence change after depolarization with 50 mM KCl) in transfected HEK 293 cells: 3 fold
